From patent publication US20200102387A1 (CELGENE, published 2020)
Positions count from the first letter of the chain named.

T1: mouse SIRPα on cells (mouse, UniProt P97797 32-513)
T1 construct: whole, on cells; also called mouse SIRPα-CHO-K1; Ms SIRPα-CHO-K1
T1 sequence (looked up): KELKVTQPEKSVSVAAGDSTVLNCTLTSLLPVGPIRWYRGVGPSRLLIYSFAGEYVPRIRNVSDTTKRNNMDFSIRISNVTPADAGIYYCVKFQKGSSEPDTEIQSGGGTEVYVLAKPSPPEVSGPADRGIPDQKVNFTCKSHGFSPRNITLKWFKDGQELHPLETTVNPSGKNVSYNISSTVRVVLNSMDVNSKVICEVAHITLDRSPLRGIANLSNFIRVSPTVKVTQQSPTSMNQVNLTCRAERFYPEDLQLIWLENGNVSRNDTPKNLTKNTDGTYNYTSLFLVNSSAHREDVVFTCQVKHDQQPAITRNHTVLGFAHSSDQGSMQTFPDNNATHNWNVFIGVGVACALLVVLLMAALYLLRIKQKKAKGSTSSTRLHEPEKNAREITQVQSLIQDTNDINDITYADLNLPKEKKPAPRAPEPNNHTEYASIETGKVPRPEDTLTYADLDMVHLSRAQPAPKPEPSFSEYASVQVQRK

T2: cynomolgus SIRPα on cells (cynomolgus, UniProt P78324 31-373 (human entry))
T2 construct: also called cyno SIRPα-CHO; Cyno SIRPα-CHO-K1; not shown: Transmembrane and cytoplasmic region of cynomolgus SIRPα
T2 chain: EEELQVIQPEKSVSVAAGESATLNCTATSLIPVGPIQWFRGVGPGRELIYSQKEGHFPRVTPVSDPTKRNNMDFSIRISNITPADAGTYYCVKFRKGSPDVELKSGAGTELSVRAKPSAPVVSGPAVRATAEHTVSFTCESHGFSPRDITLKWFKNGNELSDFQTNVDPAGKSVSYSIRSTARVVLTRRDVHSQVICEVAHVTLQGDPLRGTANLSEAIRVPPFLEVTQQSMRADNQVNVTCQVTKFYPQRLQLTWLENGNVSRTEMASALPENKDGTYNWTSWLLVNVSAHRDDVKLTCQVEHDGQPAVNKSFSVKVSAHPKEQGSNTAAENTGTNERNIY

B1: SIRPAB-17 (antibody, human IgG1, kappa, V domains shown)
VH: QVQLQESGPGLVKPSQTLSLTCTVSGGSISSGGYYWSWIRQHPGKGLEWIGAIYYSGPIYYNPSLKSRVTISVDTSKNQFSLKLSSVTAADTAVYYCAREGYHSGMDVWGQGTTVTVSS
VL: DIQMTQSPSSLSASVGDRVTITCQASQDISNYLNWYQQKPGKAPKLLIYDASNLATGVPSRFSGSGSGTDFTFTISSLQPEDIATYYCQQFAYLPWTFGGGTKVEIKR
B2: SIRPAB-11 (antibody, human IgG1, kappa)
light: DIQMTQSPSSVSASVGDRVTITCRASQGISSWLAWYQQKPGKAPKLLIYAASNLQSGVPSRFSGSGSGTDFTLTISSLQPEDFATYYCQQGASFPITFGGGTKVEIKRTVAAPSVFIFPPSDEQLKSGTASVVCLLNNFYPREAKVQWKVDNALQSGNSQESVTEQDSKDSTYSLSSTLTLSKADYEKHKVYACEVTHQGLSSPVTKSFNRGEC
heavy: not shown
notes: also called SIRPAB-11-IgG1; SIRPAB-11 IgG1 antibody
B3: SIRPAB-12 (antibody, human IgG1, kappa)
light: B2 light
heavy: not shown
B4: SIRPAB-9 (antibody, human IgG1, kappa, V domains shown)
VH: QVQLVQSGAEVKKPGASVKVSCKASGYTFGGYGISWVRQAPGQGLEWMGWISAYGGETNYAQKLQGRVTMTTDTSTSTAYMELRSLRSDDTAVYYCAREAGSSWYDFDLWGRGTLVTVSS
VL: DIQMTQSPSSVSASVGDRVTITCRASQGISSWLAWYQQKPGKAPKLLIYAASNLQSGVPSRFSGSGSGTDFTLTISSLQPEDFATYYCQQGASFPITFGGGTKVEIKR
B5: SIRPAB-10 (antibody, human IgG1, kappa, V domains shown)
VH: B4 VH with G30T, G33P, S52Y, E57N
VL: B4 VL
B6: SIRPAB-11-AAS (antibody, human IgG1, kappa, L234A L235A)
light: B2 light
heavy: QVQLVQSGAEVKKPGASVKVSCKASGYTFRGYGISWVRQAPGQGLEWMGWISAYGGETNYAQKLQGRVTMTTDTSTSTAYMELRSLRSDDTAVYYCAREAGSSWYDFDLWGRGTLVTVSSASTKGPSVFPLAPSSKSTSGGTAALGCLVKDYFPEPVTVSWNSGALTSGVHTFPAVLQSSGLYSLSSVVTVPSSSLGTQTYICNVNHKPSNTKVDKKVEPKSCDKTHTCPPCPAPEAAGGPSVFLFPPKPKDTLMISRTPEVTCVVVSVSHEDPEVKFNWYVDGVEVHNAKTKPREEQYNSTYRVVSVLTVLHQDWLNGKEYKCKVSNKALPAPIEKTISKAKGQPREPQVYTLPPSREEMTKNQVSLTCLVKGFYPSDIAVEWESNGQPENNYKTTPPVLDSDGSFFLYSKLTVDKSRWQQGNVFSCSVMHEALHNHYTQKSLSLSPGK
notes: also called SIRPAB-11-IgG1-AAS

The binders below were run against T1, mouse SIRPα on cells (assay: cell binding, Ms SIRPα-CHO-K1 cells, 100 nM antibody).

Row | fold increase over background (100 nM) | Binder
1 | 449 fold | B1

These binders were tested against T1, mouse SIRPα on cells (assay: flow cytometry of mouse CD11b positive cells, FL2-H anti-human PE; concentration not given).

Row | binding result | Binder
2 | no binding | B2
3 | no binding | B3

These binders were tested against T3, NOD/SCID mouse SIRPα-Fc (mouse (NOD/SCID)) (assay: BLI Octet, antigen-Fc on biosensor).
T3 construct: a signal peptide may be part of the entry; also called NOD/SCID Ms SIRPα-Fc
T3 sequence (chain, as listed by the source limits assumed): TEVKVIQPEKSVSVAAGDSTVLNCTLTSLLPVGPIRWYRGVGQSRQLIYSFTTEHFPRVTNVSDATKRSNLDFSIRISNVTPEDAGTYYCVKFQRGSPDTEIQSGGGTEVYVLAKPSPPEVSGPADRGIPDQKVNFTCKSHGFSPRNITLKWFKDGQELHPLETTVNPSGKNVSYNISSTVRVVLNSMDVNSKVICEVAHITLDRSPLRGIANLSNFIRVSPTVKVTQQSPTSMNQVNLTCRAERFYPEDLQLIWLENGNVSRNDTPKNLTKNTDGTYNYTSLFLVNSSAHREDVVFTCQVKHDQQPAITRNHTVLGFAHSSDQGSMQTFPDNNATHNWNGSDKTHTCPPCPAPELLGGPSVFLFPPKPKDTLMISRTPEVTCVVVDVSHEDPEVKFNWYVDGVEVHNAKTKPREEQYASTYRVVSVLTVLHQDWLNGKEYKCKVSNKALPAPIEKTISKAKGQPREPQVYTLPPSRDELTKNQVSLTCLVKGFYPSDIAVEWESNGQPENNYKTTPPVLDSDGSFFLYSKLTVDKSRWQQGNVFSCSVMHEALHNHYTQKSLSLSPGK

Row | Kd | koff | kon | Binder
4 | 152 nM | 0.0228 s⁻¹ | 150000 M⁻¹ s⁻¹ | B1

The binders below were run against T4, mouse SIRPα-Fc (mouse) (assay: BLI Octet, antigen-Fc on biosensor).
T4 construct: a signal peptide may be part of the entry; also called Ms; Ms SIRPα-Fc

Row | Kd | koff | kon | Binder
5 | 17.3 nM | 0.00373 s⁻¹ | 220000 M⁻¹ s⁻¹ | B1

What follows are binders tested against T5, human SIRPα on cells (human, UniProt P78324 31-504) (assay: cell binding, Hu SIRPα-CHO-K1 cells, 100 nM antibody).
T5 construct: whole, on cells; also called human SIRPα-CHO; Hu SIRPα-CHO-K1

Row | fold increase over background (100 nM) | Binder
6 | 2650 fold | B4
7 | 1890 fold | B2
8 | 1170 fold | B5
9 | 2350 fold | B3

Target: T2, cynomolgus SIRPα on cells
Test: cell binding, Cyno SIRPα-CHO-K1 cells, 100 nM antibody

Row | fold increase over background (100 nM) | Binder
10 | 2300 fold | B4
11 | 1950 fold | B2
12 | 1070 fold | B5
13 | 2220 fold | B3

The binders below were run against T6, human SIRPα v4-Fc (SIRPα4 extracellular domain fused to human IGHG1_Fc) (human, UniProt P78324 31-373; P0DOX5 223-449 = IgG part) (assay: BLI Octet, antigen-Fc on biosensor;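 note: antigen captured on the biosensor tip and then immersed in solutions of the test antibodies, which act as the analyte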).
T6 construct: as m38; also called V4 (e.g. SIRPα4)

Row | Kd | koff | kon | Binder
14 | 7.69 nM | 0.00777 s⁻¹ | 1.01e+06 M⁻¹ s⁻¹ | B4
15 | 1.52 nM | 0.00228 s⁻¹ | 1.5e+06 M⁻¹ s⁻¹ | B2
16 | 1.93 nM | 0.00267 s⁻¹ | 1.38e+06 M⁻¹ s⁻¹ | B5
17 | 8.13 nM | 0.0109 s⁻¹ | 1.35e+06 M⁻¹ s⁻¹ | B3

What follows are binders tested against T7, human SIRPα v3-Fc (SIRPα3 extracellular domain fused to human IGHG1_Fc) (human, UniProt P78324 31-373; P0DOX5 223-449 = IgG part) (assay: BLI Octet, antigen-Fc on biosensor;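 note: antigen captured on the biosensor tip and then immersed in solutions of the test antibodies, which act as the analyte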).
T7 construct: as m38; also called V3 (e.g. SIRPα3)

Row | Kd | koff | kon | Binder
18 | 0.53 nM | 0.000515 s⁻¹ | 980000 M⁻¹ s⁻¹ | B4
19 | 0.145 nM | 0.0002 s⁻¹ | 1.38e+06 M⁻¹ s⁻¹ | B2
20 | 0.21 nM | 0.000261 s⁻¹ | 1.24e+06 M⁻¹ s⁻¹ | B5
21 | 0.53 nM | 0.000694 s⁻¹ | 1.31e+06 M⁻¹ s⁻¹ | B3

The binders below were run against T8, human SIRPα v2-Fc (SIRPα2 extracellular domain fused to human IGHG1_Fc) (human, UniProt P78324 31-373; P0DOX5 223-449 = IgG part) (assay: BLI Octet, antigen-Fc on biosensor;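 note: antigen captured on the biosensor tip and then immersed in solutions of the test antibodies, which act as the analyte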).
T8 construct: as m38; also called V2 (e.g. SIRPα2); SIRPα V2:ESE

Row | Kd | koff | kon | Binder
22 | 23 nM | 0.0185 s⁻¹ | 810000 M⁻¹ s⁻¹ | B4
23 | 4.4 nM | 0.00559 s⁻¹ | 1.27e+06 M⁻¹ s⁻¹ | B2
24 | 1.06 nM | 0.00132 s⁻¹ | 1.25e+06 M⁻¹ s⁻¹ | B5
25 | 15.4 nM | 0.0151 s⁻¹ | 980000 M⁻¹ s⁻¹ | B3

The binders below were run against T9, cyno SIRPα-Fc (cynomolgus) (assay: BLI Octet, antigen-Fc on biosensor;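 note: antigen captured on the biosensor tip and then immersed in solutions of the test antibodies, which act as the analyte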).
T9 construct: a signal peptide may be part of the entry

Row | Kd | koff | kon | Binder
26 | 18.8 nM | 0.0212 s⁻¹ | 1.13e+06 M⁻¹ s⁻¹ | B4
27 | 4.9 nM | 0.00869 s⁻¹ | 1.77e+06 M⁻¹ s⁻¹ | B2
28 | 4.89 nM | 0.00683 s⁻¹ | 1.4e+06 M⁻¹ s⁻¹ | B5

Target: T4, mouse SIRPα-Fc
Test: BLI Octet, antigen-Fc on biosensor
Remark: another data set of the same source

Row | binding result | Binder
29 | no binding | B4
30 | no binding | B2
31 | no binding | B5
32 | no binding | B3

These binders were tested against T10, human SIRPα v1-Fc (SIRPα1 extracellular domain fused to human IGHG1_Fc) (human, UniProt P78324 31-373; P0DOX5 223-449 = IgG part) (assay: BLI Octet, antigen-Fc on biosensor).
T10 construct: also called V1 (e.g. SIRPα1); SIRPα V1: DLN

Row | Kd | koff | kon | Binder
33 | 0.714 nM | 0.000757 s⁻¹ | 1.06e+06 M⁻¹ s⁻¹ | B4
34 | 0.13 nM | 0.0002 s⁻¹ | 1.49e+06 M⁻¹ s⁻¹ | B2
35 | 0.25 nM | 0.000345 s⁻¹ | 1.4e+06 M⁻¹ s⁻¹ | B5
36 | 0.81 nM | 0.00107 s⁻¹ | 1.31e+06 M⁻¹ s⁻¹ | B3

What follows are binders tested against T11, human SIRPα v6-Fc (SIRPα6 extracellular domain fused to human IGHG1_Fc) (human, UniProt P78324 31-373; P0DOX5 223-449 = IgG part) (assay: BLI Octet, antigen-Fc on biosensor).
T11 construct: as m38; also called V6 (e.g. SIRPα6)

Row | Kd | koff | kon | Binder
37 | 1.56 nM | 0.00182 s⁻¹ | 1.17e+06 M⁻¹ s⁻¹ | B4
38 | 0.183 nM | 0.000356 s⁻¹ | 1.94e+06 M⁻¹ s⁻¹ | B2
39 | 0.38 nM | 0.000491 s⁻¹ | 1.28e+06 M⁻¹ s⁻¹ | B5
40 | 1.58 nM | 0.00256 s⁻¹ | 1.63e+06 M⁻¹ s⁻¹ | B3

Each binder was assayed against T12, human SIRPβ-Fc (human) (assay: BLI Octet, antigen-Fc on biosensor).
T12 construct: a signal peptide may be part of the entry

Row | Kd | koff | kon | Binder
41 | 2.79 nM | 0.00284 s⁻¹ | 1.02e+06 M⁻¹ s⁻¹ | B4
42 | 0.32 nM | 0.000473 s⁻¹ | 1.49e+06 M⁻¹ s⁻¹ | B2
43 | 0.34 nM | 0.000477 s⁻¹ | 1.4e+06 M⁻¹ s⁻¹ | B5
44 | 3.35 nM | 0.00445 s⁻¹ | 1.33e+06 M⁻¹ s⁻¹ | B3

Each binder was assayed against T13, human SIRPγ-Fc (human) (assay: BLI Octet, antigen-Fc on biosensor).
T13 construct: a signal peptide may be part of the entry

Row | Kd | koff | kon | Binder
45 | 1.37 nM | 0.00161 s⁻¹ | 1.17e+06 M⁻¹ s⁻¹ | B4
46 | 0.13 nM | 0.000205 s⁻¹ | 1.57e+06 M⁻¹ s⁻¹ | B2
47 | 0.85 nM | 0.00123 s⁻¹ | 1.45e+06 M⁻¹ s⁻¹ | B5
48 | 1.49 nM | 0.00218 s⁻¹ | 1.46e+06 M⁻¹ s⁻¹ | B3

The binders below were run against T14, human SIRPα v5-Fc (SIRPα5 extracellular domain fused to human IGHG1_Fc) (human, UniProt P78324 31-373; P0DOX5 223-449 = IgG part) (assay: BLI Octet, antigen-Fc on biosensor).
T14 construct: as m38; also called V5 (e.g. SIRPα5)

Row | Kd | koff | kon | Binder
49 | 4.75 nM | 0.00462 s⁻¹ | 970000 M⁻¹ s⁻¹ | B4
50 | 0.611 nM | 0.00106 s⁻¹ | 1.73e+06 M⁻¹ s⁻¹ | B2
51 | 1.58 nM | 0.00178 s⁻¹ | 1.13e+06 M⁻¹ s⁻¹ | B5
52 | 4.87 nM | 0.00697 s⁻¹ | 1.43e+06 M⁻¹ s⁻¹ | B3

The binders below were run against T15, FcγR1 (CD64) (human, UniProt P12314 16-374) (assay: cell binding, FcγR-engineered HEK293 cells).
T15 construct: whole, on cells
T15 sequence (P12314 16-374): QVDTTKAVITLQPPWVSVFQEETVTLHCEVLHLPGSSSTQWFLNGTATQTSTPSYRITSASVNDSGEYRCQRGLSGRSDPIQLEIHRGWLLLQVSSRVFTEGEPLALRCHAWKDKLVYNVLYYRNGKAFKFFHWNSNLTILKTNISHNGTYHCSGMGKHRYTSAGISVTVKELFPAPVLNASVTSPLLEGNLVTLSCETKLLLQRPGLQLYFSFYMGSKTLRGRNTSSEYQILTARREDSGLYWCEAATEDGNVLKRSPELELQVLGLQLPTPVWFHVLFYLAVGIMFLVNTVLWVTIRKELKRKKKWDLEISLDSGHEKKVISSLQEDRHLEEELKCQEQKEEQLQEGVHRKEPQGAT

Row | EC50 | Binder
53 | 3.18 µM | B6

The binders below were run against T16, FcγR3A (CD16aV158) (human, UniProt P08637 17-254) (assay: cell binding, FcγR-engineered HEK293 cells).
T16 construct: whole, on cells
T16 sequence (P08637 17-254 F176V): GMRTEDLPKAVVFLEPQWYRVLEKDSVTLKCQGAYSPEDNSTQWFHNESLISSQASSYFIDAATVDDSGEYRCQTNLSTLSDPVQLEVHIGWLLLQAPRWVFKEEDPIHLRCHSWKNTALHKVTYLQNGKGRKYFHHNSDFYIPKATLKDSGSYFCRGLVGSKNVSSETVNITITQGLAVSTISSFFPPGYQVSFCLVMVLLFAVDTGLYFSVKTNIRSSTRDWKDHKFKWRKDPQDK

Row | EC50 | Binder
54 | 15.1 µM | B6
